In series [1] the target is T1, His6-TyrR (Enterobacter cloacae UW5?) (UniProt B2D1S2).
T1 sequence: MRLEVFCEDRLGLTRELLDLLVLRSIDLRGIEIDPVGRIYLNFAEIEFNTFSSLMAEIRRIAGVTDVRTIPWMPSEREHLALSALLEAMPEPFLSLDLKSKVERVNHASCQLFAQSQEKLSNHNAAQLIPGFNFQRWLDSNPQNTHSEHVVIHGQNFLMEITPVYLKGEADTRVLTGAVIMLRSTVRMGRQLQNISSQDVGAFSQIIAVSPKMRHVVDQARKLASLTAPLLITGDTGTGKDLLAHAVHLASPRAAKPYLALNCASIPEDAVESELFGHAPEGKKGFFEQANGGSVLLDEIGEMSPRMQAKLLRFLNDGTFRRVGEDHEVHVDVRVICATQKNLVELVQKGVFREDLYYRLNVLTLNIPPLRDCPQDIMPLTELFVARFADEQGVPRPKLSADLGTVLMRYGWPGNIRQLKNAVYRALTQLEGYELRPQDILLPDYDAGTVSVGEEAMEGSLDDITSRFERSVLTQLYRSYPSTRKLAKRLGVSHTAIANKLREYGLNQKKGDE
The series is described as follows: EMSA. Conditions: 20% glycerol, 250 mM NaCl, 50 mM Tris-Cl pH 7.5, 5 mM MgCl2, 2.5 mM DTT, 2.5 mM EDTA, 0.1 mM ATP, 0.1 mM Trp, Phe or Tyr, 1 ug poly d(I-C), 50 ng DNA, room ….

The target in series [2] is T1, His6-TyrR (Enterobacter cloacae UW5?). The series is described as follows: competition. The conditions noted are these: 20% glycerol, 250 mM NaCl, 50 mM Tris-Cl pH 7.5, 5 mM MgCl2, 2.5 mM DTT, 2.5 mM EDTA, 0.1 mM ATP, 0.1 mM Trp, Phe or Tyr, 1 ug poly d(I-C), 50 ng DNA, room ….

On to “GGTTCGCATAACAGGTGTCCTTCTGACGTTGACCTCACTTTGAGTATTAAAGAAGCGTGATGGCTGTCCAGAATTGGTCGTAAGAAGGGCATAGAAAGAATGCTTTATAAAAAAGGCTGCGCTATGCTCTTTTTTTTCATATAAATATAAACGTATATACTGATTTTTCCTTTCAGCGCCAGAGGGCATCAGAATGGG (double strand) [akr-ipdC double weak and strong box mutant]”, for which the binding entry in series [1] is on record as “no binding”.
Same read-out and setting: the entry for “GGTTCGCATAACAGGTGTCCTTCTGACGTTGACCTCACTTTGAGTATTAAAGAAGCGTGATGGCTGTCCAGAATTGGTCGTAAGAAGGGCATAGAAAGAATGCTTTATAAAAAAGGCTGCGCTATGCTCTTTTTTTTCATGTAAATGTAAACGTATACACTGATTTTTCCTTTCAGCGCCAGAGGGCATCAGAATGGG (double strand) [akr-ipdC strong box mutant]” is “binds more weakly”.
“GGTTCGCATAACAGGTGTCCTTCTGACGTTGACCTCACTTTGAGTATTAAAGAAGCGTGATGGCTGTCCAGAATTGGTCGTAAGAAGGGCATGGAAAGAATGCTTTACAAAAAAGGCTGCGCTATGCTCTTTTTTTTCATATAAATATAAACGTATATACTGATTTTTCCTTTCAGCGCCAGAGGGCATCAGAATGGG (double strand) [akr-ipdC weak box mutant]”: the binding entry in series [1] was “binds”.
As to “GGTTCGCATAACAGGTGTCCTTCTGACGTTGACCTCACTTTGAGTATTAAAGAAGCGTGATGGCTGTCCAGAATTGGTCGTAAGAAGGGCATGGAAAGAATGCTTTACAAAAAAGGCTGCGCTATGCTCTTTTTTTTCATGTAAATGTAAACGTATACACTGATTTTTCCTTTCAGCGCCAGAGGGCATCAGAATGGG (double strand) [akr-ipdC intergenic region wild-type]”, the binding result in series [2] and in series [1] was “binds” throughout.

The record behind these values is PMC4374768.
